# Measured values from US20250381223A1 (UTC THERAPEUTICS SHANGHAI, published 2025).
# Biological target: T1, mesothelin-Fc recombinant protein (human, UniProt Q13421 296-580, limits assumed)
# T1 construct: construct not described; also called Meso-Fc; not shown: Fc part
# Experiment: flow cytometry, T cells with CAR mRNA, mesothelin-Fc + PE-anti-IgG-Fc; Control 0.97
# Experimental: (§1) Mesothelin CAR mRNA obtained in Example 26 above was introduced into A549 tumor cells and T cells by electroporation, and the procedures are as follows: A549 tumor cells and T cells were collected and washed 3 times with the Opti-MEM medium. The cell pellet was resuspended in the Opti-MEM medium and the cell concentration was adjusted to 1×10e7 cells/mL. 10 μg of RNA was aliquoted into 1.5-mL EP tubes, 100 μL of T cells or A549 cells were added, followed by mixing well. 100 μL of cells mixed with RNA were added to the BTX electroporation cuvette and slight tapping was performed to avoid air bubbles. Electroporation was performed using a BTX instrument under the following parameters: for T cells: 500 V voltage, 0.7 ms; for A549 tumor cells: 300 V voltage, 0.5 ms. The cells were then transferred to a pre-warmed medium and cultured at 37° C. The binding of mesothelin CART cells to the mesothelin-Fc recombinant protein was determined by FACS staining. […] T cells without CAR molecules served as the control (“Mock”).
# T1 sequence (Q13421 other isoform, or with tags, fused parts or gaps limits assumed): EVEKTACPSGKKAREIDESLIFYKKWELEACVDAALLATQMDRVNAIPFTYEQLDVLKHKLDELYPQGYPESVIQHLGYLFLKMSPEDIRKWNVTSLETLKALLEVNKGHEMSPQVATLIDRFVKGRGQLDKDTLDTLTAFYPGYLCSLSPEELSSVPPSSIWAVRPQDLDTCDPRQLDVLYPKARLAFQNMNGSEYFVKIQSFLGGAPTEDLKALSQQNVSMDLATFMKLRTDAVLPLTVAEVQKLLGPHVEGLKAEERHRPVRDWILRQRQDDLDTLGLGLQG
row,Binder,percent of cells in the gate
1,"anti-mesothelin scFv-M22 (scFv, On mRNA-electroporated T cells as CAR) scFv: QSALTQPASVSGSPGQSITLSCTGTRRDIGGYEYVSWYQQHPGKAPKLLIFSVNNRPSGVSHRFSGSKSGNTASLTISGLQAEDEAAYFCSSYSSRDTLVLFGGGTKLTVLGGGGSGGGGSGGGGSQVQLVQSGAEVKKPGSSVKVSCKASGGTFSSYAISWVRQAPGQGLEWMGGIIPIFGTANYAQKFQGRVTITADESTSTAYMELSSLRSEDTAVYYCASGRSGSYGLYWGQGTLVTVSS",80%
2,"anti-mesothelin scFv-M24 (scFv, On mRNA-electroporated T cells as CAR) scFv: QPVLTQPPSASGTPGQRVTISCSGSSSNIGSNYVYWYQQFPGTAPKLLIYMNNQRPSGVPDRFSGSKSGTSASLAISGLRSEDEADYYCAARDDSLSGYVTFGGGTKLTVLGGGGSGGGGSGGGGSEVHLVESGGGLVQPGGSLRLSCAASGFTFSSYAMSWVRQAPGKGLEWVSAISGSGGSTYYADSVKGRFTISRDNSKNTLYLQMNSLKTEDTAVYYCTRGVATFDYWGQGTLVTVSS",93.6%
3,"anti-mesothelin scFv-M27 (scFv, On mRNA-electroporated T cells as CAR) scFv: EIVLTQSPGTLSLSPGERATLSCRASQPIVASHLAWYQHKPGQAPRLLIYGASTRAAGIPDRFSGSGSGTDFTLTISRLEPEDFAVYFCQQYGISPFTFGPGTKVDIKGGGGSGGGGSGGGGSQVQLVQSGAEVKKPGESLKISCQGSGYSFTDYWIGWVRQAPGQGLEWMGWITPNNGNTNYAPKFQGRVTLTTDTSTSTAYMELRSLTSDDTAVYFCARRGRNSSGYLYYYSMDVWGQGTTVTVSS",76.3%
4,"anti-mesothelin scFv-M28 (scFv, On mRNA-electroporated T cells as CAR) scFv: QSALTQPPSASGSPGQSVTISCSGTSSDVGGYNFVSWYQHHPGKAPKLMIYEVSKRPSGVPDRFSGSKSGNTASLTVSGLQAEDEADYYCSSYAGRNNPYLFGTGTKLTVLGGGGSGGGGSGGGGSQLQLQESGAEVKKPGSSVKVSCKASGGTFSSYAISWVRQAPGQGLEWMGGIIPIFGTANYAQKFQGRVTITADESTSTAYMELSSLRSEDTAVYYCARDLGGYSYGHGLDYWGQGTLVTVSS",82.8%
5,"anti-mesothelin scFv-M31 (scFv, On mRNA-electroporated T cells as CAR) scFv: QSALTQPPSASGSPGQSVTISCTGTSSDIGGYNSVSWYQQHPGKAPKLIIYGVSRRPSGVPDRFSGSKSANTASLTVSGLQAVDEADYYCSSYGGSNNLLFGGGTKLTVLGGGGSGGGGSGGGGSEVHLVESGGGLAQPGGSLRLSCAASGFSFSSSWMAWVRQAPGKGLEWVANIKQDGSSQYYVDSVKGRFTISRDNAKNSLSLQMNSLRAEDTAVYYCARDIWYSIDYWGQGTLVTVSS",67.9%
6,"anti-mesothelin scFv-M32 (scFv, On mRNA-electroporated T cells as CAR) scFv: DIRMTQSPSSLSASVGDRVTVTCQASEDINNSLNWYQQKPGKAPQLLIYDASDLETGVPSRFSGRGSGRDFTLTISSLQPEDFATYYCQQLNSYPLTFGGGTKLEIKGGGGSGGGGSGGGGSQVQLVQSGAEVKKPGASVKVSCKASGFTFIGYYLHWVRQAPGQGLEWMGIINPSGGRTSMAQKFQGRVSMTTDTSTGTVYLDLGRLGSDDTAVYYCARADNWNAGSMDVWGNGTTVTVSS",84.1%
7,"anti-mesothelin scFv-M37 (scFv, On mRNA-electroporated T cells as CAR) scFv: DIVMTQTPSSLSASVGDRVTITCRASQGISNYLAWFQQKPGKAPKPLIYAASSLQSGVPSKFSGSGSGTDFTLTISNLQPEDFATYICQQYSSYPITFGQGTRLEIKGGGGSGGGGSGGGGSQLQLQESGPGLVKPSETLSLTCAVSGGSISPYYWTWIRQSPGKAMEWMGYIHYSGRTNYNPSLESRATFSVDTSKNQISLKLNSVTAADTAVYYCTKVGDPGLFDYWGPGTLVTVSS",74.2%

# Biological target: T1, mesothelin-Fc recombinant protein
# Experiment: flow cytometry, T cells with CAR mRNA, mesothelin-Fc + PE-anti-IgG-Fc; Control 0.63
# Experimental: as §1
row,Binder,percent of cells in the gate
1,"anti-mesothelin scFv-M6 (scFv, On mRNA-electroporated T cells as CAR) scFv: EIVMTQSPATLSLSPGERATLSCRASQSIGNSLAWYQQKPGQAPRLLIYDVSNRATGIPARFSGSGSGTDFTLTISSLEPEDFAVYYCQHRYSWPLTFGGGTKVEIKGGGGSGGGGSGGGGSQVQLVQSGGGLVKPGGSLRLSCAASGFTFSDYYMSWIRQAPGKGLEWVSYISSSGSTIYYADSVKGRFTISRDNAKNSLYLQMNSLRAEDTAVYYCARDGYRTHNWFDPWGQGTLVTVSS",83.4%
2,"anti-mesothelin scFv-M7 (scFv, On mRNA-electroporated T cells as CAR) scFv: DIRLTQSPSSLSASLGDRVTITCRASQAISSALAWYQQKPGKAPRLLIYDASTLESGVPSRFSGSGSGTDFTLTISSLQPEDFATYYCQQADSFPLTFGGGTKLEIKGGGGSGGGGSGGGGSQVQLVQSGAEVKKSGESLKISCKGSGYGFGAYWIAWVRQMPGKGLEWMGIIYPGDSRVIYSPYFQGQVTISADKSISTAYLQWSSLKASDTAMYYCARFGGPKFATNWFDIWGQGTTVTVSS",36.3%
3,"anti-mesothelin scFv-M8 (scFv, On mRNA-electroporated T cells as CAR) scFv: DIQLTQSPSSLSASVGDRVTITCRASQSISSSLNWYQQKPGKAPKLLIYAASSLQSGVPSRFSGSGSGTDFTLTISSLQPEDFATYSCQQSYSTPLTFGGGTKVEIKGGGGSGGGGSGGGGSQVHLVESGGGVVQPGRSLRVSCAASGFTFSGYAMYWVRQAPGKGLEYVSAITTNGGSTNYADSVKGRFTISRDNSKNTLYLQMSSLRAGDTAVYYCARGAPGYRGYYMDVWGKGTTVTVSS",80.8%
4,"anti-mesothelin scFv-M13 (scFv, On mRNA-electroporated T cells as CAR) scFv: AIRMTQSPSSLSASVGDRVTITCRASQGISNSLAWYQQKPGKAPKLLLYAASRLESGVPSRFSGSGSGTDYTLTISSLQPEDFATYYCQQYYSTPFTFGPGTKLEIKGGGGSGGGGSGGGGSQVQLVQSGAEVKKPGSSVKVSCKTSADTFSANTINWVRQAPGHGLEWMGRIIPSLNIRDYAQEFQGRVTFTADESTNTVYMQLTSLRSEDTAVYYCARDPGSTWSPNQFFPHWGQGTLVTVSS",71.1%
5,"anti-mesothelin scFv-M15 (scFv, On mRNA-electroporated T cells as CAR) scFv: DIQLTQSPSSLSASIGDRVTITCRASQGVNSALAWYQQKPGKPPNLLIYDASSLESGVPSRFSGSGSGRDFTLTISSLQPEDFATYYCQQFSSYPLTFGGGTKVDIKGGGGSGGGGSGGGGSQVQLVQSGAEVKKPGASVKVSCKASGYTFTSYYMHWVRQAPGQGLEWMGIINPSGGSTSYAQKFQGRVTMTRDTSTSTVYMELSSLRSEDTAVYYCARAQRGGSVYFDYWGQGTLVTVSS",48.8%
6,M18 (scFv) chain 1: QVQLVQSGGGLVQPGGSLRLSCAASGFTFSSYWMHWVRQAPGKGLVWVSRINSDGSSTSYADSVKGRFTISRDNAKNTLYLQMNSLRAEDTAVYYCVRTGWVGSYYYYMDVWGKGTTVTVSS chain 2: EIVLTQSPGTLSLSPGERATLSCRASQSVSSNYLAWYQQKPGQPPRLLIYDVSTRATGIPARFSGGGSGTDFTLTISSLEPEDFAVYYCQQRSNWPPWTFGQGTKVEIK,9.53%
